For this assay, the target named is T1, Human NEU1 recombinant protein (human, UniProt Q99519 48-415).
T1 construct: human neuraminidase 1 (NEU1), recombinant; Amine-coupled to a CM5 chip; also called recombinant human NEU1; source: recombinant protein, gifted by Dr. Xiao Yibei lab
Nature of the assay: SPR; Biacore T200, 25 °C, HBS-EP+ pH 7.4; human NEU1 amine-coupled to CM5 chip (8000–10,000 RU); ALK5 recombinant proteins flowed at 7.80–500 nM; 1:1 binding model. Conditions: both partners purified.

In paper PMC10043283, “Neuraminidase 1 promotes renal fibrosis development in male mice” (Nature Communications, 2023) one finds Kd data, which are given here for one molecule.

B1: human ALK5_(162-403aa) recombinant protein (domain or fragment, UniProt P36897 162-403, looked up)
chain: EDPSLDRPFISEGTTLKDLIYDMTTSGSGSGLPLLVQRTIARTIVLQESIGKGRFGEVWRGKWRGEEVAVKIFSSREERSWFREAEIYQTVMLRHENILGFIAADNKDNGTWTQLWLVSDYHEHGSLFDYLNRYTVTVEGMIKLALSTASGLAHLHMEIVGTQGKPAIAHRDLKSKNILVKKNGTCCIADLGLAVRHDSATDTIDIAPNHRVGTKRYMAPEVLDDSINMKHFESFKRADIYA
notes: human ALK5 (TGFβ type I receptor), amino acids 162-403; also called amino acid 162–403 region of ALK5; source: bought: Sino Biological Inc
Take B1: the Kd was found to be 3.14 nM.

The term Kd denotes a measure of binding affinity in units of concentration.
